T1: Recombinant NT antigen (N-terminal pro-brain natriuretic peptide, NT-proBNP) (human, UniProt P16860 27-102)
T1 construct: domain: N-terminal pro-brain natriuretic peptide (NT-proBNP); also called recombinant NT protein; N-terminal pro-B-type natriuretic peptide
T1 sequence (looked up): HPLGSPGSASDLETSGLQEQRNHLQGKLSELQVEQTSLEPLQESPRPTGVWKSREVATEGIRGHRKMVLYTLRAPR

B1: Mutation 1-2 (antibody, V domains shown)
VH: QVRLQESGPSQVKPAQTLSLTCAISGFSITTYYVDWVRHTPGKPPEWLAQMTKDGNAVHQPTLRSRLSITRDTSKSQVFLKLTGVTTEDTAVYYCVRGLIDWGPGLLVTVSS
VL: QAVLTQPSSVSRSLGQTVSITCSGSSDQVGFGDYINWFQLIPGSAPKTLIFGATSRVRGVPDRFSGSRSGNTATLTINSLQAEDEADYYCGSANSRGGYVFGSGTRLTVLS
B2: WT 1-9 (antibody, V domains shown)
VH: QVRLQESGPSQVKPAQTLSLTCAISGPSVTTYYIDWVRHTPGKPPEWLAQMTKDANAVHQPTLRSRLSITRDTSKSQVFLKLTGVTTEDTAVYYCVKGLIDWGPGLLVTVSS
V domain: QAVLTQPSSVSRSLGQTVSITCSGSSDNVGPGDYVNWFQLIPGSAPKTLIFAAYSRLRGVPDRFSGSRSGNTATLTINSLQAEDEADYYCGSGNSRGGYVWGSGTRLTVLS
B3: Mutation 1-4 (antibody, V domains shown)
VH: QVRLQESGPSQVKPAQTLSLTCAISGFSLTTYYLDWVRHTPGKPPEWLAQMTKDGNAVHQPTVRSRLSITRDTSKSQVFLKLTGVTTEDTAVYYCVRGVIDWGPGLLVTVSS
VL: QAVLTQPSSVSRSLGQTVSITCSGSSDNVGFGDYLNWFQLIPGSAPKTLIFGAYSRLRGVPDRFSGSRSGNTATLTINSLQAEDEADYYCGSGNSRGGYVFGSGTRLTVLS
B4: Mutation 1-14 (antibody, V domains shown)
VH: QVRLQESGPSQVKPAQTLSLTCAISGFSLTTYYVDWVRHTPGKPPEWLAQMTKDGNAVHQPTLRSRLSITRDTSKSQVFLKLTGVTTEDTAVYYCVRGLIDWGPGLLVTVSS
VL: QAVLTQPSSVSRSLGQTVSITCSGSSDQVGFGDYINWFQLIPGSAPKTLIFGAYSRVRGVPDRFSGSRSGNTATLTINSLQAEDEADYYCGSANSRGGYVFGSGTRLTVLS
B5: Mutation 1-28 (antibody, V domains shown)
VH: QVRLQESGPSQVKPAQTLSLTCAISGFSITTYYLDWVRHTPGKPPEWLAQMTKDGNAVHQPTVRSRLSITRDTSKSQVFLKLTGVTTEDTAVYYCVRGVIDWGPGLLVTVSS
VL: QAVLTQPSSVSRSLGQTVSITCSGSSDNVGFGDYLNWFQLIPGSAPKTLIFGASSRLRGVPDRFSGSRSGNTATLTINSLQAEDEADYYCGSGNSRGGYVFGSGTRLTVLS
B6: Mutation 1-12 (antibody, V domains shown)
VH: QVRLQESGPSQVKPAQTLSLTCAISGFSLTTYYIDWVRHTPGKPPEWLAQMTKDGNAVHQPTIRSRLSITRDTSKSQVFLKLTGVTTEDTAVYYCVRGIIDWGPGLLVTVSS
VL: QAVLTQPSSVSRSLGQTVSITCSGSSDQVGFGDYVNWFQLIPGSAPKTLIFGAYSRIRGVPDRFSGSRSGNTATLTINSLQAEDEADYYCGSPNSRGGYVFGSGTRLTVLS
B7: Mutation 1-16 (antibody, V domains shown)
VH: QVRLQESGPSQVKPAQTLSLTCAISGFSVTTYYLDWVRHTPGKPPEWLAQMTKDGNAVHQPTVRSRLSITRDTSKSQVFLKLTGVTTEDTAVYYCVRGVIDWGPGLLVTVSS
VL: QAVLTQPSSVSRSLGQTVSITCSGSSDNVGFGDYLNWFQLIPGSAPKTLIFGATSRLRGVPDRFSGSRSGNTATLTINSLQAEDEADYYCGSGNSRGGYVFGSGTRLTVLS
B8: Mutation 1-24 (antibody, V domains shown)
VH: QVRLQESGPSQVKPAQTLSLTCAISGFSVTTYYIDWVRHTPGKPPEWLAQMTKDGNAVHQPTIRSRLSITRDTSKSQVFLKLTGVTTEDTAVYYCVRGIIDWGPGLLVTVSS
VL: QAVLTQPSSVSRSLGQTVSITCSGSSDQVGFGDYVNWFQLIPGSAPKTLIFGASSRIRGVPDRFSGSRSGNTATLTINSLQAEDEADYYCGSPNSRGGYVFGSGTRLTVLS
B9: Mutation 1-21 (antibody)
heavy: QVRLQESGPSQVKPAQTLSLTCAISGFSLTTYYIDWVRHTPGKPPEWLAQMTKDGNAVHQPTLRSRLSITRDTSKSQVFLKLTGVTTEDTAVYYCVRGLIDFGPGLLVTVSSASTTPPKVYPLTSCCGDTSSSIVTLGCLVSSYMPEPVTVTWNSGALTSGVHTFPAILQSSGLYSLSSVVTVPASTSGAQTFICNVAHPASSTKVDKRVEPGCPDPCKHCRCPPPELPGGPSVFIFPPKPKDTLTISGTPEVTCVVVDVGQDDPEVQFSWFVDNVEVRTARTKPREEQFNSTFRVVSALPIQHQDWTGGKEFKCKVHNEGLPAPIVRTISRTKGQAREPQVYVLAPPQEELSKSTLSVTCLVTGFYPDYIAVEWQKNGQPESEDKYGTTTSQLDADGSYFLYSRLRVDKNSWQEGDTYACVVMHEALHNHYTQKSISKPPGK
light: QAVLTQPSSVSRSLGQTVSITCSGSSDQVGFGDYINWFQLIPGSAPKTLIFGAYSRIRGVPDRFSGSRSGNTATLTINSLQAEDEADYYCGSANSRGGYVFGSGTRLTVLSQPKSAPSVTLFPPSKEELDTNKATVVCLISDFYPGSVNVVWKADGSTINQNVKTTQASKQSNSKYAASSYLTLTGSEWKSKSSYTCEVTHEGSTVTKTVKPSECS
B10: Mutation 1-26 (antibody, V domains shown)
VH: QVRLQESGPSQVKPAQTLSLTCAISGFSVTTYYVDWVRHTPGKPPEWLAQMTKDGNAVHQPTLRSRLSITRDTSKSQVFLKLTGVTTEDTAVYYCVRGLIDWGPGLLVTVSS
VL: QAVLTQPSSVSRSLGQTVSITCSGSSDQVGFGDYVNWFQLIPGSAPKTLIFGASSRVRGVPDRFSGSRSGNTATLTINSLQAEDEADYYCGSANSRGGYVFGSGTRLTVLS
B11: Mutation 1-49 (antibody)
heavy: QVRLQESGPSQVKPAQTLSLTCAISGFSLTTYYLDWVRHTPGKPPEWLAQMTKDGNAVHNPTIRSRLSITRDTSKSQVFLKLTGVTTEDTAVYYCVRGIIDFGPGLLVTVSSASTTPPKVYPLTSCCGDTSSSIVTLGCLVSSYMPEPVTVTWNSGALTSGVHTFPAILQSSGLYSLSSVVTVPASTSGAQTFICNVAHPASSTKVDKRVEPGCPDPCKHCRCPPPELPGGPSVFIFPPKPKDTLTISGTPEVTCVVVDVGQDDPEVQFSWFVDNVEVRTARTKPREEQFNSTFRVVSALPIQHQDWTGGKEFKCKVHNEGLPAPIVRTISRTKGQAREPQVYVLAPPQEELSKSTLSVTCLVTGFYPDYIAVEWQKNGQPESEDKYGTTTSQLDADGSYFLYSRLRVDKNSWQEGDTYACVVMHEALHNHYTQKSISKPPGK
light: QAVLTQPSSVSRSLGQTVSITCSGSSDQVGFGDYLNWFQLIPGSAPKTLIFGATSRLRGVPDRFSGSRSGNTATLTINSLQAEDEADYYCGSPNSRNYVFGSGTRLTVLSQPKSAPSVTLFPPSKEELDTNKATVVCLISDFYPGSVNVVWKADGSTINQNVKTTQASKQSNSKYAASSYLTLTGSEWKSKSSYTCEVTHEGSTVTKTVKPSECS
B12: WT 1-8 (antibody, V domains shown)
VH: QVRLQESGPSQVKPAQTLSLTCAISGPSLTTYYVDWVRHTPGKPPEWLAQMTKDANAVHQPTVRSRLSITRDTSKSQVFLKLTGVTTEDTAVYYCVKGIIDWGPGLLVTVSS
V domain: QAVLTQPSSVSRSLGQTVSITCSGSSDNVGPGDYINWFQLIPGSAPKTLIFAAYSRVRGVPDRFSGSRSGNTATLTINSLQAEDEADYYCGSPNSRNYVWGSGTRLTVLS
B13: WT 1-1 (antibody, V domains shown)
VH: QVRLQESGPSQVKPAQTLSLTCAISGPSVTTYYIDWVRHTPGKPPEWLAQMTKDANAVHNPTIRSRLSITRDTSKSQVFLKLTGVTTEDTAVYYCVKGVIDWGPGLLVTVSS
V domain: QAVLTQPSSVSRSLGQTVSITCSGSSDNVGPGDYINWFQLIPGSAPKTLIFAAYSRIRGVPDRFSGSRSGNTATLTINSLQAEDEADYYCGSANSRNYVWGSGTRLTVLS
B14: WT 1-2 (antibody, V domains shown)
VH: QVRLQESGPSQVKPAQTLSLTCAISGPSLTTYYIDWVRHTPGKPPEWLAQMTKDANAVHQPTLRSRLSITRDTSKSQVFLKLTGVTTEDTAVYYCVKGVIDWGPGLLVTVSS
V domain: QAVLTQPSSVSRSLGQTVSITCSGSSDNVGPGDYLNWFQLIPGSAPKTLIFAASSRIRGVPDRFSGSRSGNTATLTINSLQAEDEADYYCGSPNSRNYVWGSGTRLTVLS
B15: Mutation 1-51 (antibody)
heavy: QVRLQESGPSQVKPAQTLSLTCAISGFSVTTYYIDWVRHTPGKPPEWLAQMTKDGNAVHNPTLRSRLSITRDTSKSQVFLKLTGVTTEDTAVYYCVRGLIDFGPGLLVTVSSASTTPPKVYPLTSCCGDTSSSIVTLGCLVSSYMPEPVTVTWNSGALTSGVHTFPAILQSSGLYSLSSVVTVPASTSGAQTFICNVAHPASSTKVDKRVEPGCPDPCKHCRCPPPELPGGPSVFIFPPKPKDTLTISGTPEVTCVVVDVGQDDPEVQFSWFVDNVEVRTARTKPREEQFNSTFRVVSALPIQHQDWTGGKEFKCKVHNEGLPAPIVRTISRTKGQAREPQVYVLAPPQEELSKSTLSVTCLVTGFYPDYIAVEWQKNGQPESEDKYGTTTSQLDADGSYFLYSRLRVDKNSWQEGDTYACVVMHEALHNHYTQKSISKPPGK
light: QAVLTQPSSVSRSLGQTVSITCSGSSDNVGFGDYVNWFQLIPGSAPKTLIFGAYSRIRGVPDRFSGSRSGNTATLTINSLQAEDEADYYCGSANSRNYVFGSGTRLTVLSQPKSAPSVTLFPPSKEELDTNKATVVCLISDFYPGSVNVVWKADGSTINQNVKTTQASKQSNSKYAASSYLTLTGSEWKSKSSYTCEVTHEGSTVTKTVKPSECS
B16: WT 1-3 (antibody)
heavy: QVRLQESGPSQVKPAQTLSLTCAISGPSITTYYLDWVRHTPGKPPEWLAQMTKDANAVHQPTIRSRLSITRDTSKSQVFLKLTGVTTEDTAVYYCVKGLIDFGPGLLVTVSSASTTPPKVYPLTSCCGDTSSSIVTLGCLVSSYMPEPVTVTWNSGALTSGVHTFPAILQSSGLYSLSSVVTVPASTSGAQTFICNVAHPASSTKVDKRVEPGCPDPCKHCRCPPPELPGGPSVFIFPPKPKDTLTISGTPEVTCVVVDVGQDDPEVQFSWFVDNVEVRTARTKPREEQFNSTFRVVSALPIQHQDWTGGKEFKCKVHNEGLPAPIVRTISRTKGQAREPQVYVLAPPQEELSKSTLSVTCLVTGFYPDYIAVEWQKNGQPESEDKYGTTTSQLDADGSYFLYSRLRVDKNSWQEGDTYACVVMHEALHNHYTQKSISKPPGK
light: QAVLTQPSSVSRSLGQTVSITCSGSSDNVGPGDYVNWFQLIPGSAPKTLIFAATSRIRGVPDRFSGSRSGNTATLTINSLQAEDEADYYCGSANSRNYVWGSGTRLTVLSQPKSAPSVTLFPPSKEELDTNKATVVCLISDFYPGSVNVVWKADGSTINQNVKTTQASKQSNSKYAASSYLTLTGSEWKSKSSYTCEVTHEGSTVTKTVKPSECS

The binders below were run against T1, Recombinant NT antigen (N-terminal …) (assay: indirect ELISA, KD calculated from half-max OD at 4 coating concentrations).
Method in brief: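 Plates coated overnight at 4 °C with recombinant NT antigen at 3, 1.5, 0.75 or 0.375 μg/ml, blocked with 20% BSA. Antibody, 2-fold dilutions from 1000 to 0.977 ng/ml, was incubated 30 min at 37 °C, then detected with HRP anti-IgG, OD450/630. KD was derived from half-max OD across coating levels.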
B1 showed a Kd of 2.61 nM. B2 was tested, and the Kd was 2.47 nM. With B3 the Kd was 2.07 nM. B4 showed a Kd of 0.875 nM. B5 was tested, and the Kd was 2.25 nM. Work on B6 yielded a Kd of 2.75 nM. Work on B7 yielded a Kd of 3.27 nM. B8 was tested, and the Kd was 1.17 nM. Binder B9 has a Kd of 2.53 nM. B10 showed a Kd of 1.51 nM. B11 was tested, and the Kd was 6.83 nM. B12 showed a Kd of 4.78 nM. With B13 the Kd was 17.8 nM. With B14 the Kd was 3.48 nM. B15 showed a Kd of 0.944 nM. B16 gave a Kd of 2.53 nM.

— US20220025008A1 (FAPON BIOTECH, published 2022)
